# T1: Maltose Binding Protein (MBP) tagged IpaJΔ50 (Shigella flexneri, UniProt Q54150 51-259)
# T1 sequence: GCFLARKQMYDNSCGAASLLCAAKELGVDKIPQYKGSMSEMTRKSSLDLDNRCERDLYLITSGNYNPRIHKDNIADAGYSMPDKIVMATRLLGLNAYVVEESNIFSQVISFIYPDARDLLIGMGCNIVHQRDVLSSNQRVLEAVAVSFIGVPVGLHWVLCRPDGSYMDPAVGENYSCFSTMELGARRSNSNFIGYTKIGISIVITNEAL
# B1: Glutathione S-transferase (GST) tagged ARF1ΔN17 (domain or fragment)
# chain: not shown
# Key:
# [1] = biological target: T1, Maltose Binding Protein (MBP) tagged …; experiment: pull-down
# [2] = biological target: T1, Maltose Binding Protein (MBP) tagged …; experiment: homologous competition assay
# [3] = biological target: B1; experiment: homologous competition assay
binder,measurement,setting,value
GST-ARF5Δ17 (domain or fragment) not shown,binding result,[1],binds
B1,Kd,[2],280 nM
"MBP-GGA1(76-215) (domain or fragment, UniProt Q9UJY5 76-215, looked up) SCGKRFHDEVGKFRFLNELIKVVSPKYLGSRTSEKVKNKILELLYSWTVGLPEEVKIAEAYQMLKKQGIVKSDPKLPDDTTFPLPPPRPKNVIFEDEEKSKMLARLLKSSHPEDLRAANKLIKEMVQEDQKRMEKISKRV",Kd,[3],1810 nM
"GST-ARF6Δ13 (domain or fragment, UniProt P62330 14-175, looked up) MRILMLGLDAAGKTTILYKLKLGQSVTTIPTVGFNVETVTYKNVKFNVWDVGGQDKIRPLWRHYYTGTQGLIFVVDCADRDRIDEARQELHRIINDREMRDAIILIFANKQDLPDAMKPHEIQEKLGLTRIRDRNWYVQPSCATSGDGLYEGLTWLTSNYKS",binding result,[1],binds

# Source: PMC4385471 (Molecular cell, 2015)
